{"source": "paper PMC10074443", "key": {"N[C@H](CF)[C@H](N)C(=O)O": {"test_system": "N[C@H](CF)[C@H](N)C(=O)O", "assay": "continuous MesG/hydroxylamine coupled adenylation assay", "assay_type": "biochemical, Paraburkholderia acidicola", "settings": "co-substrate ATP; hydroxylamine as acceptor"}, "C[C@@H](N)[C@H](N)C(=O)O": {"test_system": "C[C@@H](N)[C@H](N)C(=O)O", "assay": "continuous MesG/hydroxylamine coupled adenylation assay", "assay_type": "biochemical, Paraburkholderia acidicola", "settings": "co-substrate ATP; hydroxylamine as acceptor"}}}
{"substance": "A3 (adenylation domain of SulM) (Paraburkholderia acidicola)", "values": [{"measurement": "Km", "setting": "N[C@H](CF)[C@H](N)C(=O)O", "value": 20.7, "unit": "mM"}, {"measurement": "Km", "setting": "C[C@@H](N)[C@H](N)C(=O)O", "value": 1.08, "unit": "mM"}]}
